Tests used:
[1] = biological target: NTS1 L371C^7.55 (TM7) in the Cys-depleted background of rat neurotensin receptor 1 (rat) (UniProt P20789); assay: FRET or BRET; ensemble FRET; A488- and A555-labelled NTS1 reconstituted together 1:1 in brain polar lipid liposomes; apo; ~1 μM receptor; 50 mM Tris-HCl pH 7.4, 50 mM NaCl, 1 mM EDTA, 10% glycerol; room temperature; Ecor corrected for donor-to-acceptor ratio
[2] = biological target: NTS1 L371C^7.55 (TM7) in the Cys-depleted background of rat neurotensin receptor 1 (rat) (UniProt P20789); assay: FRET or BRET; ensemble FRET as for the apo samples, with 5 μM agonist neurotensin (+NT); A488- and A555-labelled NTS1 1:1 in brain polar lipid liposomes; room temperature
[3] = biological target: NTS1 Y104C^2.41 (TM2) in the Cys-depleted background of rat neurotensin receptor 1 (rat) (UniProt P20789); assay: FRET or BRET; ensemble FRET; A488- and A555-labelled NTS1 reconstituted together 1:1 in brain polar lipid liposomes; apo; ~1 μM receptor; 50 mM Tris-HCl pH 7.4, 50 mM NaCl, 1 mM EDTA, 10% glycerol; room temperature; Ecor corrected for donor-to-acceptor ratio
[4] = biological target: NTS1 Y104C^2.41 (TM2) in the Cys-depleted background of rat neurotensin receptor 1 (rat) (UniProt P20789); assay: FRET or BRET; ensemble FRET as for the apo samples, with 5 μM agonist neurotensin (+NT); A488- and A555-labelled NTS1 1:1 in brain polar lipid liposomes; room temperature
[5] = biological target: NTS1 S(C)172C^3.55 (TM3, re-introduced native Cys) in the Cys-depleted background of rat neurotensin receptor 1 (rat) (UniProt P20789); assay: FRET or BRET; ensemble FRET; A488- and A555-labelled NTS1 reconstituted together 1:1 in brain polar lipid liposomes; apo; ~1 μM receptor; 50 mM Tris-HCl pH 7.4, 50 mM NaCl, 1 mM EDTA, 10% glycerol; room temperature; Ecor corrected for donor-to-acceptor ratio
[6] = biological target: NTS1 S(C)172C^3.55 (TM3, re-introduced native Cys) in the Cys-depleted background of rat neurotensin receptor 1 (rat) (UniProt P20789); assay: FRET or BRET; ensemble FRET as for the apo samples, with 5 μM agonist neurotensin (+NT); A488- and A555-labelled NTS1 1:1 in brain polar lipid liposomes; room temperature
[7] = biological target: NTS1 A261C^5.52 (TM5) in the Cys-depleted background of rat neurotensin receptor 1 (rat) (UniProt P20789); assay: FRET or BRET; ensemble FRET; A488- and A555-labelled NTS1 reconstituted together 1:1 in brain polar lipid liposomes; apo; ~1 μM receptor; 50 mM Tris-HCl pH 7.4, 50 mM NaCl, 1 mM EDTA, 10% glycerol; room temperature; Ecor corrected for donor-to-acceptor ratio
[8] = biological target: NTS1 A261C^5.52 (TM5) in the Cys-depleted background of rat neurotensin receptor 1 (rat) (UniProt P20789); assay: FRET or BRET; ensemble FRET as for the apo samples, with 5 μM agonist neurotensin (+NT); A488- and A555-labelled NTS1 1:1 in brain polar lipid liposomes; room temperature
[9] = biological target: NTS1 Q378C^8.52 (H8) in the Cys-depleted background of rat neurotensin receptor 1 (rat) (UniProt P20789); assay: FRET or BRET; ensemble FRET; A488- and A555-labelled NTS1 reconstituted together 1:1 in brain polar lipid liposomes; apo; ~1 μM receptor; 50 mM Tris-HCl pH 7.4, 50 mM NaCl, 1 mM EDTA, 10% glycerol; room temperature; Ecor corrected for donor-to-acceptor ratio
[10] = biological target: NTS1 Q378C^8.52 (H8) in the Cys-depleted background of rat neurotensin receptor 1 (rat) (UniProt P20789); assay: FRET or BRET; ensemble FRET as for the apo samples, with 5 μM agonist neurotensin (+NT); A488- and A555-labelled NTS1 1:1 in brain polar lipid liposomes; room temperature
[11] = biological target: NTS1 V307C^6.34 (TM6) in the Cys-depleted background of rat neurotensin receptor 1 (rat) (UniProt P20789); assay: FRET or BRET; ensemble FRET; A488- and A555-labelled NTS1 reconstituted together 1:1 in brain polar lipid liposomes; apo; ~1 μM receptor; 50 mM Tris-HCl pH 7.4, 50 mM NaCl, 1 mM EDTA, 10% glycerol; room temperature; Ecor corrected for donor-to-acceptor ratio
[12] = biological target: NTS1 V307C^6.34 (TM6) in the Cys-depleted background of rat neurotensin receptor 1 (rat) (UniProt P20789); assay: FRET or BRET; ensemble FRET as for the apo samples, with 5 μM agonist neurotensin (+NT); A488- and A555-labelled NTS1 1:1 in brain polar lipid liposomes; room temperature
[13] = biological target: NTS1 A90C^1.58 (TM1) in the Cys-depleted background of rat neurotensin receptor 1 (rat) (UniProt P20789); assay: FRET or BRET; ensemble FRET; A488- and A555-labelled NTS1 reconstituted together 1:1 in brain polar lipid liposomes; apo; ~1 μM receptor; 50 mM Tris-HCl pH 7.4, 50 mM NaCl, 1 mM EDTA, 10% glycerol; room temperature; Ecor corrected for donor-to-acceptor ratio
[14] = biological target: NTS1 A90C^1.58 (TM1) in the Cys-depleted background of rat neurotensin receptor 1 (rat) (UniProt P20789); assay: FRET or BRET; ensemble FRET as for the apo samples, with 5 μM agonist neurotensin (+NT); A488- and A555-labelled NTS1 1:1 in brain polar lipid liposomes; room temperature
[15] = biological target: NTS1 T186C^4.42 (TM4) in the Cys-depleted background of rat neurotensin receptor 1 (rat) (UniProt P20789); assay: FRET or BRET; single-molecule FRET by TIRF microscopy; Cy3- and Cy5-labelled NTS1 T186C in DPhPC droplet interface bilayers, 100:405:45 Cy3:Cy5:unlabelled, receptor density 0.43 μm^-2; 50 mM NaCl, 1 mM EDTA, 50 mM Tris-HCl pH 7.4; 30 ms frames; constants are of dimer to monomers in two dimensions
[16] = biological target: NTS1 T186C^4.42 (TM4) in the Cys-depleted background of rat neurotensin receptor 1 (rat) (UniProt P20789); assay: FRET or BRET; ensemble FRET; A488- and A555-labelled NTS1 reconstituted together 1:1 in brain polar lipid liposomes; apo; ~1 μM receptor; 50 mM Tris-HCl pH 7.4, 50 mM NaCl, 1 mM EDTA, 10% glycerol; room temperature; Ecor corrected for donor-to-acceptor ratio
[17] = biological target: NTS1 T186C^4.42 (TM4) in the Cys-depleted background of rat neurotensin receptor 1 (rat) (UniProt P20789); assay: FRET or BRET; ensemble FRET as for the apo samples, with 5 μM agonist neurotensin (+NT); A488- and A555-labelled NTS1 1:1 in brain polar lipid liposomes; room temperature

Substance: NTS1 L371C^7.55 (TM7) in the Cys-depleted background of rat neurotensin receptor 1 (from UniProt P20789 43-424)
- Ecor(apo) [1]: 0.68
- Ecor(+NT) [2]: 0.7

Substance: NTS1 Y104C^2.41 (TM2) in the Cys-depleted background of rat neurotensin receptor 1 (from UniProt P20789 43-424)
- Ecor(apo) [3]: 0.9
- Ecor(+NT) [4]: 0.9

Substance: NTS1 S(C)172C^3.55 (TM3, re-introduced native Cys) in the Cys-depleted background of rat neurotensin receptor 1 (from UniProt P20789 43-424)
- Ecor(apo) [5]: 1.03
- Ecor(+NT) [6]: 1.02

Substance: NTS1 A261C^5.52 (TM5) in the Cys-depleted background of rat neurotensin receptor 1 (from UniProt P20789 43-424)
- Ecor(apo) [7]: 0.98
- Ecor(+NT) [8]: 1.05

Substance: NTS1 Q378C^8.52 (H8) in the Cys-depleted background of rat neurotensin receptor 1 (from UniProt P20789 43-424)
- Ecor(apo) [9]: 0.89
- Ecor(+NT) [10]: 0.89

Substance: NTS1 V307C^6.34 (TM6) in the Cys-depleted background of rat neurotensin receptor 1 (from UniProt P20789 43-424)
- Ecor(apo) [11]: 0.99
- Ecor(+NT) [12]: 0.82

Substance: NTS1 A90C^1.58 (TM1) in the Cys-depleted background of rat neurotensin receptor 1 (from UniProt P20789 43-424)
- Ecor(apo) [13]: 0.73
- Ecor(+NT) [14]: 0.77

Substance: NTS1 T186C^4.42 (TM4) in the Cys-depleted background of rat neurotensin receptor 1 (from UniProt P20789 43-424)
- dimer half-life t1/2 [15]: 1.2 s
- koff [15]: 0.58 s⁻¹
- percent of receptors as dimers at 0.43 molecules per μm^2 [15]: 9.8%
- stoichiometry N [15]: 2
- Ecor(apo) [16]: 0.77
- Ecor(+NT) [17]: 0.78
